Assay results from article PMC7143960, “Protein Engineering of a Pyridoxal-5′-Phosphate-Dependent L-Aspartate-α-Decarboxylase from Tribolium castaneum for β-Alanine Production” (Molecules, 2020).

Tests used:
[1] = biological target: T1, TcPanD (PLP-dependent L-aspartate-α-decarboxylase) (Tribolium castaneum, UniProt A7U8C7); assay: enzyme activity versus added PLP; assay type: biochemical; settings: 0.1 M phosphate pH 7.0, 37 °C, L-aspartate substrate
T1 sequence (A7U8C7 1-540): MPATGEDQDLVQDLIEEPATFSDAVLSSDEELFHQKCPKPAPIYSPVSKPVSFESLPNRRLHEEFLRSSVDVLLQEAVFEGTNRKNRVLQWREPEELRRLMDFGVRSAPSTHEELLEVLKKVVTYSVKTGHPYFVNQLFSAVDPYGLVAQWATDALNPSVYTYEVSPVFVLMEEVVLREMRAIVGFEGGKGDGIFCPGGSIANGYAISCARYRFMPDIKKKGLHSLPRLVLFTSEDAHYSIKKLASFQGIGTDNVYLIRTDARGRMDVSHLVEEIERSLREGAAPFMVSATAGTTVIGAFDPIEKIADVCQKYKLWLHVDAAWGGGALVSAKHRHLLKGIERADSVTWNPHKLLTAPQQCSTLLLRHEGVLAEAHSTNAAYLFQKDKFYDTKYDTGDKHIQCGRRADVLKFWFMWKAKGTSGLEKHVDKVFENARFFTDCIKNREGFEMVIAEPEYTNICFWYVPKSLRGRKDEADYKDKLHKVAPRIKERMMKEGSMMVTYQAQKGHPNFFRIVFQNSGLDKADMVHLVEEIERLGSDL

N[C@@H](CC(=O)O)C(=O)O = assay: purified protein; assay type: biochemical, Tribolium castaneum; settings: 0.1 M phosphate pH 7.0, 37 °C, L-aspartate 0.5-100 mM, apparent parameters
purified protein = substrate: N[C@@H](CC(=O)O)C(=O)O; assay: purified protein; settings: 0.1 M phosphate pH 7.0, 37 °C, L-aspartate 0.5-100 mM, apparent parameters

For Cc1ncc(COP(=O)(O)O)c(C=O)c1O [pyridoxal 5’-phosphate], the “enzyme activity versus added PLP” value [1] was “the enzymatic activities of the two proteins reached the highest levels under the treatment”.

“TcPanD (PLP-dependent L-aspartate-α-decarboxylase) (Tribolium castaneum; K305S/R98H)” showed a Km (N[C@@H](CC(=O)O)C(=O)O) of 1230 µM, a Vmax (N[C@@H](CC(=O)O)C(=O)O) of 7.05 µmol/min/mg and a kcat (N[C@@H](CC(=O)O)C(=O)O) of 7.64 s⁻¹. The kcat/Km (N[C@@H](CC(=O)O)C(=O)O) was 6210 M⁻¹ s⁻¹.

B1: TcPanD (PLP-dependent L-aspartate-α-decarboxylase) (Tribolium castaneum) (protein)
chain: MPATGEDQDLVQDLIEEPATFSDAVLSSDEELFHQKCPKPAPIYSPVSKPVSFESLPNRRLHEEFLRSSVDVLLQEAVFEGTNRKNRVLQWREPEELRRLMDFGVRSAPSTHEELLEVLKKVVTYSVKTGHPYFVNQLFSAVDPYGLVAQWATDALNPSVYTYEVSPVFVLMEEVVLREMRAIVGFEGGKGDGIFCPGGSIANGYAISCARYRFMPDIKKKGLHSLPRLVLFTSEDAHYSIKKLASFQGIGTDNVYLIRTDARGRMDVSHLVEEIERSLREGAAPFMVSATAGTTVIGAFDPIEKIADVCQKYKLWLHVDAAWGGGALVSAKHRHLLKGIERADSVTWNPHKLLTAPQQCSTLLLRHEGVLAEAHSTNAAYLFQKDKFYDTKYDTGDKHIQCGRRADVLKFWFMWKAKGTSGLEKHVDKVFENARFFTDCIKNREGFEMVIAEPEYTNICFWYVPKSLRGRKDEADYKDKLHKVAPRIKERMMKEGSMMVTYQAQKGHPNFFRIVFQNSGLDKADMVHLVEEIERLGSDL
Work on B1 yielded a Km (purified protein) of 1350 µM, a Vmax (purified protein) of 2.88 µmol/min/mg and a kcat (purified protein) of 3.12 s⁻¹. The kcat/Km (purified protein) was 2310 M⁻¹ s⁻¹.
